# Results reported in PMC12297413.
# Molecular target: HgcR (D-2-hydroxyglutarate catabolic regulator), PP4494 (Pseudomonas putida KT2440)
# Assay: SEC
substance,measurement,value
"HgcR (D-2-hydroxyglutarate catabolic regulator), PP4494 (natural protein)",stoichiometry N,2
